From paper PMC2063703 (The Journal of Cell Biology, 2006)
Positions count from the first letter of the chain named. Names may count otherwise.

B1: Vps4 (enzyme)
chain: MSTGDFLTKGIELVQKAIDLDTATQYEEAYTAYYNGLDYLMLALKYEKNPKSKDLIRAKFTEYLNRAEQLKKHLESEEANAAKKSPSAGSGSNGGNKKISQEEGEDNGGEDNKKLRGALSSAILSEKPNVKWEDVAGLEGAKEALKEAVILPVKFPHLFKGNRKPTSGILLYGPPGTGKSYLAKAVATEANSTFFSVSSSDLVSKWMGESEKLVKQLFAMARENKPSIIFIDEVDALTGTRGEGESEASRRIKTELLVQMNGVGNDSQGVLVLGATNIPWQLDSAIRRRFERRIYIPLPDLAARTTMFEINVGDTPCVLTKEDYRTLGAMTEGYSGSDIAVVVKDALMQPIRKIQSATHFKDVSTEDDETRKLTPCSPGDDGAIEMSWTDIEADELKEPDLTIKDFLKAIKSTRPTVNEDDLLKQEQFTRDFGQEGN
B2: Vps4^E233Q (enzyme)
chain: B1 chain with E233Q
B3: GST-Vta1 (natural protein)
chain: MASNAARVVATAKDFDKVGLGIIGYYLQLYAVELILSEEDRSQEMTALATELLDTIEAFKKEIGGESEAEDSDKSLHVMNTLIHDQEKAKIYMLNFTMSLYNEKLKQLKDGPWDVMLKRSLWCCIDLFSCILHLWKENISETSTNSLQKRIKYCKIYLSKLAKGEIGSSDEKTLDYADFADDSEEIKDEDVDHQTSDLENNNNDKVEGLAPKDQTTSYEPVDEVPEFIDDADSVNEEEQTVDKNEDAITKDEQQVVKKEVDLTRPSAPSEPAAAEHKSYTKDELTKIMDRASKIEQIQKLAKYAISALNYEDLPTAKDELTKALDLLNSI
B4: His6-Vta1 (natural protein)
chain: B3 chain
B5: GST-Vta1^K322A (natural protein)
chain: B3 chain with K322A
B6: Vta1 (purified recombinant, bacterially expressed) (natural protein)
chain: B3 chain
B7: GST-Vta1^S306A (natural protein)
chain: B3 chain with S306A
B8: GST-VSL^Vta1 (domain or fragment)
chain: RASKIEQIQKLAKYAISALNYEDLPTAKDELTKALDLLNSI
B9: GST-SBP1 (natural protein)
chain: MAALAPLPPLPAQFKSIQHHLRTAQEHDKRDPVVAYYCRLYAMQTGMKIDSKTPECRKFLSKLMDQLEALKKQLGDNEAITQEIVGCAHLENYALKMFLYADNEDRAGRFHKNMIKSFYTASLLIDVITVFGELTDENVKHRKYARWKATYIHNCLKNGETPQAGPVGIEEDNDIEENEDAGAASLPTQPTQPSSSSTYDPSNMPSGNYTGIQIPPGAHAPANTPAEVPHSTGVASNTIQPTPQTIPAIDPALFNTISQGDVRLTPEDFARAQKYCKYAGSALQYEDVSTAVQNLQKALKLLTTGRE
B10: GST-Vta1^ΔN68 (domain or fragment)
chain: AEDSDKSLHVMNTLIHDQEKAKIYMLNFTMSLYNEKLKQLKDGPWDVMLKRSLWCCIDLFSCILHLWKENISETSTNSLQKRIKYCKIYLSKLAKGEIGSSDEKTLDYADFADDSEEIKDEDVDHQTSDLENNNNDKVEGLAPKDQTTSYEPVDEVPEFIDDADSVNEEEQTVDKNEDAITKDEQQVVKKEVDLTRPSAPSEPAAAEHKSYTKDELTKIMDRASKIEQIQKLAKYAISALNYEDLPTAKDELTKALDLLNSI
B11: GST-Vta1^Δ37–68 (natural protein)
chain: MASNAARVVATAKDFDKVGLGIIGYYLQLYAVELILAEDSDKSLHVMNTLIHDQEKAKIYMLNFTMSLYNEKLKQLKDGPWDVMLKRSLWCCIDLFSCILHLWKENISETSTNSLQKRIKYCKIYLSKLAKGEIGSSDEKTLDYADFADDSEEIKDEDVDHQTSDLENNNNDKVEGLAPKDQTTSYEPVDEVPEFIDDADSVNEEEQTVDKNEDAITKDEQQVVKKEVDLTRPSAPSEPAAAEHKSYTKDELTKIMDRASKIEQIQKLAKYAISALNYEDLPTAKDELTKALDLLNSI
B12: GST-VSL^SBP1 (domain or fragment)
chain: EDFARAQKYCKYAGSALQYEDVSTAVQNLQKALKLLTTGRE

Assays:
[1] = target: Vps4 (yeast) (UniProt P52917)
[2] = target: B6; test: SEC
[3] = target: the molecule itself; test: SEC
[4] = target: B2; test: pull-down
[5] = target: the molecule itself; test: AUC
[6] = target: B2; test: SEC

B1
Km of the Vps4 protein concentration-dependent ATPase activity, with 1 μM Vta1 [1]: 0.118 µM
Km of the Vps4 protein concentration-dependent ATPase activity, with 6 μM Vta1 [1]: 0.069 µM
Km of the Vps4 protein concentration-dependent ATPase activity, without Vta1 [1]: 1.1 µM

B2
stoichiometry N [2]: ~1
stoichiometry N [3]: 2

B3
binding result [4]: binds

B4
stoichiometry N [5]: 2

B5
binding result [4]: binds

B6
binding result [6]: binds

B7
binding result [4]: binds

B8
binding result [4]: binds

B9
binding result [4]: binds

B10
binding result [4]: binds

B11
binding result [4]: binds

B12
binding result [4]: binds
